Experimental data reported in IntAct's records for PubMed 10869553.

B1: Protein S100-A4 (Mus musculus), P07091 (parent)
chain: MARPLEEALDVIVSTFHKYSGKEGDKFKLNKTELKELLTRELPSFLGKRTDEAAFQKVMSNLDSNRDNEVDFQEYCVFLSCIAMMCNEFFEGCPDKEPRKK
partner: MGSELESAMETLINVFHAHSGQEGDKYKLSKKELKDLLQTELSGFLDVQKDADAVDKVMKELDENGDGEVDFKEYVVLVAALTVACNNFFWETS

Variants of: B1
Details: with S100a1, P56565

Q: F72A was tested. Which “effect of a mutation on the interaction” value did it give?
A: Its value is “disrupting interaction”.
